Data as given in paper PMC12416549 (2024).

T1: TNFR1 (Homo sapiens, UniProt P19438)
T1 chain: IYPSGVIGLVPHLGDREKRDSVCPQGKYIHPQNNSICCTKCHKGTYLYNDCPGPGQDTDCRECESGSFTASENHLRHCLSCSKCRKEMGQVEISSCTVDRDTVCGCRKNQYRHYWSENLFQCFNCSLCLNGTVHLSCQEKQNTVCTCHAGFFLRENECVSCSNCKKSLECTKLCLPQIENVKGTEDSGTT


Target: T1, TNFR1
Test: yeast display SC50

apparent Kd (screen) [nM]	Binder
2.73	D56I (designed binder) MTLQELLREEALRRAEAEAFRYALELLAEKFPEQKEYLLDLAEEIESQIRSLSGVIVEDVRKFLDKEWAWVKELLAEHPAELAEVEAARAARLAELRAEVEAKVAA
0.593	L24C (designed binder) MTLQELLREEALRRAEAEAFRYACELLAEKFPEQKEYLLDLAEEIESQIRSLSGVDVEDVRKFLDKEWAWVKELLAEHPAELAEVEAARAARLAELRAEVEAKVAA
0.229	I45P (designed binder) MTLQELLREEALRRAEAEAFRYALELLAEKFPEQKEYLLDLAEEPESQIRSLSGVDVEDVRKFLDKEWAWVKELLAEHPAELAEVEAARAARLAELRAEVEAKVAA
0.539	M1H (designed binder) HTLQELLREEALRRAEAEAFRYALELLAEKFPEQKEYLLDLAEEIESQIRSLSGVDVEDVRKFLDKEWAWVKELLAEHPAELAEVEAARAARLAELRAEVEAKVAA
0.593	D65T (designed binder) MTLQELLREEALRRAEAEAFRYALELLAEKFPEQKEYLLDLAEEIESQIRSLSGVDVEDVRKFLTKEWAWVKELLAEHPAELAEVEAARAARLAELRAEVEAKVAA
0.539	E16A (designed binder) MTLQELLREEALRRAAAEAFRYALELLAEKFPEQKEYLLDLAEEIESQIRSLSGVDVEDVRKFLDKEWAWVKELLAEHPAELAEVEAARAARLAELRAEVEAKVAA
0.653	A105C (designed binder) MTLQELLREEALRRAEAEAFRYALELLAEKFPEQKEYLLDLAEEIESQIRSLSGVDVEDVRKFLDKEWAWVKELLAEHPAELAEVEAARAARLAELRAEVEAKVCA
2.25	D56Y (designed binder) MTLQELLREEALRRAEAEAFRYALELLAEKFPEQKEYLLDLAEEIESQIRSLSGVYVEDVRKFLDKEWAWVKELLAEHPAELAEVEAARAARLAELRAEVEAKVAA
0.869	D59Q (designed binder) MTLQELLREEALRRAEAEAFRYALELLAEKFPEQKEYLLDLAEEIESQIRSLSGVDVEQVRKFLDKEWAWVKELLAEHPAELAEVEAARAARLAELRAEVEAKVAA
0.718	L3D (designed binder) MTDQELLREEALRRAEAEAFRYALELLAEKFPEQKEYLLDLAEEIESQIRSLSGVDVEDVRKFLDKEWAWVKELLAEHPAELAEVEAARAARLAELRAEVEAKVAA
6.43	E67I (designed binder) MTLQELLREEALRRAEAEAFRYALELLAEKFPEQKEYLLDLAEEIESQIRSLSGVDVEDVRKFLDKIWAWVKELLAEHPAELAEVEAARAARLAELRAEVEAKVAA
0.446	A90D (designed binder) MTLQELLREEALRRAEAEAFRYALELLAEKFPEQKEYLLDLAEEIESQIRSLSGVDVEDVRKFLDKEWAWVKELLAEHPAELAEVEAARDARLAELRAEVEAKVAA
9.41	A19P (designed binder) MTLQELLREEALRRAEAEPFRYALELLAEKFPEQKEYLLDLAEEIESQIRSLSGVDVEDVRKFLDKEWAWVKELLAEHPAELAEVEAARAARLAELRAEVEAKVAA
12.5	W70S (designed binder) MTLQELLREEALRRAEAEAFRYALELLAEKFPEQKEYLLDLAEEIESQIRSLSGVDVEDVRKFLDKEWASVKELLAEHPAELAEVEAARAARLAELRAEVEAKVAA
0.539	E73S (designed binder) MTLQELLREEALRRAEAEAFRYALELLAEKFPEQKEYLLDLAEEIESQIRSLSGVDVEDVRKFLDKEWAWVKSLLAEHPAELAEVEAARAARLAELRAEVEAKVAA
0.49	E58G (designed binder) MTLQELLREEALRRAEAEAFRYALELLAEKFPEQKEYLLDLAEEIESQIRSLSGVDVGDVRKFLDKEWAWVKELLAEHPAELAEVEAARAARLAELRAEVEAKVAA

Second part, the binder before the results:

Binder	apparent Kd (screen) [nM]
L96W (designed binder) MTLQELLREEALRRAEAEAFRYALELLAEKFPEQKEYLLDLAEEIESQIRSLSGVDVEDVRKFLDKEWAWVKELLAEHPAELAEVEAARAARLAEWRAEVEAKVAA	0.79
A11C (designed binder) MTLQELLREECLRRAEAEAFRYALELLAEKFPEQKEYLLDLAEEIESQIRSLSGVDVEDVRKFLDKEWAWVKELLAEHPAELAEVEAARAARLAELRAEVEAKVAA	0.405
E67A (designed binder) MTLQELLREEALRRAEAEAFRYALELLAEKFPEQKEYLLDLAEEIESQIRSLSGVDVEDVRKFLDKAWAWVKELLAEHPAELAEVEAARAARLAELRAEVEAKVAA	12.5
W68Q (designed binder) MTLQELLREEALRRAEAEAFRYALELLAEKFPEQKEYLLDLAEEIESQIRSLSGVDVEDVRKFLDKEQAWVKELLAEHPAELAEVEAARAARLAELRAEVEAKVAA	5.31
D59C (designed binder) MTLQELLREEALRRAEAEAFRYALELLAEKFPEQKEYLLDLAEEIESQIRSLSGVDVECVRKFLDKEWAWVKELLAEHPAELAEVEAARAARLAELRAEVEAKVAA	13.8
A98C (designed binder) MTLQELLREEALRRAEAEAFRYALELLAEKFPEQKEYLLDLAEEIESQIRSLSGVDVEDVRKFLDKEWAWVKELLAEHPAELAEVEAARAARLAELRCEVEAKVAA	0.49
E5V (designed binder) MTLQVLLREEALRRAEAEAFRYALELLAEKFPEQKEYLLDLAEEIESQIRSLSGVDVEDVRKFLDKEWAWVKELLAEHPAELAEVEAARAARLAELRAEVEAKVAA	0.593
G54L (designed binder) MTLQELLREEALRRAEAEAFRYALELLAEKFPEQKEYLLDLAEEIESQIRSLSLVDVEDVRKFLDKEWAWVKELLAEHPAELAEVEAARAARLAELRAEVEAKVAA	16.7
V57T (designed binder) MTLQELLREEALRRAEAEAFRYALELLAEKFPEQKEYLLDLAEEIESQIRSLSGVDTEDVRKFLDKEWAWVKELLAEHPAELAEVEAARAARLAELRAEVEAKVAA	1.05
L3F (designed binder) MTFQELLREEALRRAEAEAFRYALELLAEKFPEQKEYLLDLAEEIESQIRSLSGVDVEDVRKFLDKEWAWVKELLAEHPAELAEVEAARAARLAELRAEVEAKVAA	2.25
V57C (designed binder) MTLQELLREEALRRAEAEAFRYALELLAEKFPEQKEYLLDLAEEIESQIRSLSGVDCEDVRKFLDKEWAWVKELLAEHPAELAEVEAARAARLAELRAEVEAKVAA	0.539
G54E (designed binder) MTLQELLREEALRRAEAEAFRYALELLAEKFPEQKEYLLDLAEEIESQIRSLSEVDVEDVRKFLDKEWAWVKELLAEHPAELAEVEAARAARLAELRAEVEAKVAA	26.9
L39T (designed binder) MTLQELLREEALRRAEAEAFRYALELLAEKFPEQKEYLTDLAEEIESQIRSLSGVDVEDVRKFLDKEWAWVKELLAEHPAELAEVEAARAARLAELRAEVEAKVAA	2.05
D40A (designed binder) MTLQELLREEALRRAEAEAFRYALELLAEKFPEQKEYLLALAEEIESQIRSLSGVDVEDVRKFLDKEWAWVKELLAEHPAELAEVEAARAARLAELRAEVEAKVAA	0.539
L12Q (designed binder) MTLQELLREEAQRRAEAEAFRYALELLAEKFPEQKEYLLDLAEEIESQIRSLSGVDVEDVRKFLDKEWAWVKELLAEHPAELAEVEAARAARLAELRAEVEAKVAA	0.79
L74S (designed binder) MTLQELLREEALRRAEAEAFRYALELLAEKFPEQKEYLLDLAEEIESQIRSLSGVDVEDVRKFLDKEWAWVKESLAEHPAELAEVEAARAARLAELRAEVEAKVAA	2.25
V55R (designed binder) MTLQELLREEALRRAEAEAFRYALELLAEKFPEQKEYLLDLAEEIESQIRSLSGRDVEDVRKFLDKEWAWVKELLAEHPAELAEVEAARAARLAELRAEVEAKVAA	2.48
L64N (designed binder) MTLQELLREEALRRAEAEAFRYALELLAEKFPEQKEYLLDLAEEIESQIRSLSGVDVEDVRKFNDKEWAWVKELLAEHPAELAEVEAARAARLAELRAEVEAKVAA	0.593
A91N (designed binder) MTLQELLREEALRRAEAEAFRYALELLAEKFPEQKEYLLDLAEEIESQIRSLSGVDVEDVRKFLDKEWAWVKELLAEHPAELAEVEAARANRLAELRAEVEAKVAA	0.593
